Experiment [1] has as its target T1, human CD3ε and CD3δ co-expressed on HEK293F cells (human, UniProt P07766 23-207; P04234 22-171).
T1 construct: also called huCD3ε/δ (transfected cells); huCD3e + huCD3d
Kind of experiment: flow cytometry, transfected HEK293F. On the procedure:
(§1) To analyze binding of antibodies to human CD3ε and human CD3δ expressed on the surface of cells, HEK293F cells were transfected with both constructs either alone or in co-transfection and signals were measured by flow cytometry. For transfection procedure FuGENE HD Transfection Reagent (Promega, #E2311) was used according to manufacturer's protocol.
(§2) Antibodies for staining were seeded at 1 μg in 50 μl per well Stain Buffer with FBS (BD Pharmingen) in 96-well U-bottom suspension culture plates (Greiner bio-one). Harvested transfected cells were resuspended in Stain Buffer with FBS and were added at 50 μl per well to the antibodies. Cells were incubated at 4° C. in the dark for 30 min and were washed twice. 0.5 μg secondary antibody Goat F(ab′)2 Anti-Human IgG-FITC (Beckman Coulter, #732598) or Goat F(ab′)2 Anti-Human kappa-PE (Southern Biotech, #206209), respectively, in combination with 0.5 μg 7-AAD per well was added in 100 μl Stain Buffer with FBS. Cells were incubated at 4° C. in the dark for 15 min and were washed twice. For measurement, cells were resuspended in 200 μl Stain Buffer with FBS. Cells were measured using the MACSQuant (Miltenyi Biotec) or LSRII (BD) flow cytometer, respectively. Further data analyses were performed using the FlowJo software (Tree Star, Inc.).
A general note: A flow cytometer gives signals particle by particle.

Experiment [2] concerns the target T2, human CD3ε expressed alone on HEK293F cells (human, UniProt P07766 23-207).
T2 construct: also called huCD3ε
Kind of experiment: flow cytometry, transfected HEK293F. How it is done:
as §1, §2

In experiment [3] the target is T3, human CD3 (TCR complex) on primary human T cells or Jurkat cells (human, UniProt P07766 23-207).
T3 construct: on the cells it stands in the whole TCR/CD3 complex; also called Jurkat E6-1 (expressing human TCR)
Kind of experiment: flow cytometry, primary human T cells. On the procedure:
The binding capacity of the CD3-Fabs was determined by flow cytometry. Primary human T cells were used as target cells. Therefore, peripheral blood mononuclear cells (PBMCs) were isolated from 200 ml peripheral blood of healthy donors treated with EDTA by Ficoll density centrifugation. 15 ml Histopaque (Sigma-Aldrich) was preloaded on a 50 ml Leucosep-Tube (Greiner bio-one). Blood was diluted with autoMACS Rinsing Buffer+1% BSA (Miltenyi Biotec) and loaded on the membrane of a total of ten prepared tubes. Tubes were centrifuged without brake for 10 min at 1000 xg. PBMCs were collected and washed with autoMACS Rinsing Buffer+1% BSA three times. Finally, PBMCs were resuspended in autoMACS Running Buffer (Miltenyi Biotec) for isolation of T lymphocytes by autoMACSpro technology using the Pan T Cell isolation Kit (Miltenyi Biotec) according to manufacturer's instructions. Purity of separated T cells was analyzed by MACSQuant flow cytometry using the human 7-Color Immunophenotyping Kit (Miltenyi Biotec). Isolated T cells were resuspended in Stain Buffer with FBS (BD Pharmingen) and 1E5 cells in 100 μl per well were seeded in 96-well U-bottom suspension culture plates (Greiner bio-one). Fab antibodies were diluted 1:3 in serial in PBS (Invitrogen) and 5 μl each were added to the cells at a final maximum concentration of 30000 ng/ml. The assay was incubated for 45 min at 4° C. Cells were washed twice with Stain Buffer with FBS and 1 μg secondary antibody Goat F(ab′)2 Anti-Human kappa-FITC (Beckman Coulter, #732621) per well was added in 100 μl Stain Buffer with FBS per well. The assay was incubated for 20 min at 4° C. and washed twice afterwards. Cells were resuspended in 150 μl Stain Buffer with FBS per well and were measured using the MACSQuant (Miltenyi Biotec) or LSRII (BD) flow cytometer. Further data analyses were performed using the FlowJo software (Tree Star, Inc.). Read out was percentage of cells positive for antibody binding. Cells treated only with the secondary but no primary antibody were used to set the gates. EC50 Curves were calculated by XLfit (Algorithm 205), EC50 values were calculated as inflection point of the slope (data are shown in table 6).

Experiment [4] has as its target T4, human CD3ε/δ-Fc fusion protein (soluble recombinant CD3ε/δ complex) (human, UniProt P04234 22-105).
T4 construct: also called huCD3ε/δ; huCD3; not shown: hinge, CH2, CH3 of human IgG with tag
The experiment in a line: SPR Biacore, CD3εδ-Fc captured, Fab analyte. How it is done:
Binding affinities of anti-CD3 binding Fabs or CODV-Fabs were measured by surface plasmon resonance (SPR) using a Biacore3000 instrument (GE Healthcare). Assay buffer was HBS-EP (BR-1001-88, GE Healthcare). Capture of CD3ε/δ-Fc fusion proteins was achieved using the human antibody capture kit (GE Healthcare). […] The CD3εδ-Fc fusions proteins were captured at 10 μl/min to approx. 70 RU to yield Rmax values of 30 RU. Binding kinetics with the anti-CD3 Fabs or CODV-Fabs was measured at 30 μl/min for 240 sec. and 600 sec. for association and dissociation phase, respectively. Twofold dilutions of Fabs from 3 to 400 nM in assay buffer were used. All Fab concentrations were run in duplicate together with duplicate buffer blanks for double referencing. Regeneration of the capture surface was performed with a 1 min injection of 3M MgCl2 solution at 30 μl/min. For data analysis the BIAevaluation software v.4.1 (GE Healthcare) was used. Data were fit globally using a 1:1 Langmuir model with mass transfer.
In general terms: SPR reads the build-up and loss of mass on a sensor chip optically.

In experiment [5] the target is T5, human CD3δ expressed alone on HEK293F cells (human, UniProt P04234 22-171).
T5 construct: entry includes the signal peptide; also called huCD3δ
The experiment in a line: flow cytometry, HEK293F transfected with huCD3δ. How it is done:
as §1
Cells were incubated on a shaker at 37° C. and 5% CO2. At day one to three after transfection cells were harvested and binding of antibodies was analyzed by flow cytometry.
as §2

For experiment [6], the target named is T4, human CD3ε/δ-Fc fusion protein (soluble …). Kind of experiment: SPR, CD3-Fc captured, Fab 100 nM. How it is done: (§3) Binding was tested by SPR using a BIAcore3000 instrument run with HBS-EP buffer. Recombinant huCD3 proteins (ε/δ (PB01226), ε/γ (PB01225)) were captured at 10 μl/min via Fc-tag by anti-human Fc capture antibody MAB1302 (Millipore) immobilized on a CM5 sensor chip. Anti-CD3 Fabs were used as analytes at 100 nM with association and dissociation times of 240 sec and 300 sec, respectively at 30 μl/min. After each cycle the surfaces were regenerated by a 2 min pulse of 10 mM glycine buffer pH2.5.

Experiment [7] addresses recombinant huCD3ε/γ protein with Fc-tag (PB01225) (human, UniProt P07766 23-126; P09693 23-116). Kind of experiment: SPR, CD3-Fc captured, Fab 100 nM. How it is done: as §3

T5 sequence (P04234 22-171 limits assumed, stated change not applied): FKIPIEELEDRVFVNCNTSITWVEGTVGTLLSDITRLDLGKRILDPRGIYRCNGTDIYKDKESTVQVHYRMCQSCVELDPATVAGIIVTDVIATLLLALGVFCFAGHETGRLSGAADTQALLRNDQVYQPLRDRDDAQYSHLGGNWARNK
T4 sequence (chain, as listed by the source mutant, chain 1 of 2): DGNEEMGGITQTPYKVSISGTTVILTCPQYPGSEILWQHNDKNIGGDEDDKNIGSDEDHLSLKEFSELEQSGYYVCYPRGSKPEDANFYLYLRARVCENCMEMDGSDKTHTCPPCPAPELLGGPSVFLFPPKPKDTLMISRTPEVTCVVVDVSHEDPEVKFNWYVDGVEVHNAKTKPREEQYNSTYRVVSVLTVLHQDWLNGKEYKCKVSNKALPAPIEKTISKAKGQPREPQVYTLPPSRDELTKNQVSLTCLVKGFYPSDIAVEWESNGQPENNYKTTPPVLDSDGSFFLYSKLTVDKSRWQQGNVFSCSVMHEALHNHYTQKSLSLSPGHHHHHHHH
T4 sequence (P04234 22-105, stated change not applied, chain 2 of 2): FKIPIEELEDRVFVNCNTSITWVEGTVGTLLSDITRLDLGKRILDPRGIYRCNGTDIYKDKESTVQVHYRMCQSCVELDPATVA

B1: 18G9-H11 Fab (Fab, V domains shown)
VH: EVQLVETGGSLVQPGKSLKLTCATSGFTFSNAWIQWVRQSPEKQLEWVAQIKAKSNNYATYYAESVKGRFTISRDDSKSSVYLQMNSLKEEDTALYYCTWRHYYSSHTMDAWGQGTLVTVSS
VL: DVVMTQTPVSLSVSLGGQVSISCRSSQSLVHNNGNTYLSWYLQKPGQSPQLLIYKVSNRFSGISDRFSGSGSGTDFTLKISRVAPTDLGVYYCGQGSQYPFTFGAGTKLELK
As for B1, the “% antibody positive transfected cells” value in experiment [1] is 97%. In addition, the “% antibody positive transfected cells” value in experiment [2] came out at 95%. Further, a half-maximal response in experiment [3] (EC50) required 1.7 nM. Besides, in experiment [4], the Kd (in general, a measure of binding affinity in units of concentration) turned out to be 4.4 nM; the koff (as a rule, the rate constant with which the complex falls apart) is 0.0011 s⁻¹; the kon (as a rule, the rate constant with which the complex forms) worked out at 250000 M⁻¹ s⁻¹. The binding result in experiment [5] is on record as “no binding (tested: <20% of binding of huCD3e + huCD3d)”. The “RU of Fab binding at 100 nM” value in experiment [6] came to 10 RU. Besides, the “RU of Fab binding at 100 nM” value in experiment [7] was 3 RU.

B2: 11F9-F8 Fab (Fab, V domains shown)
VH: EVQLVETGGTLVQPGKSLKLTCATSGFTFSNAWMHWVRQSPEKQLEWVAQIKAKSNNYATYYAESVKGRFTISRDDSKTSVYLQLNSLREEDTAIYYCRGTQYGYNPFDYWGQGVMVTVSS
VL: DVVLTQTPVSLSVSLGGQVSISCRSSQSLVHNNGNTYLSWSLQKPGQSPQVLIYKVSNRFSGISNRFSGSGSGTDFTLKISRVEPDDLGVYYCGQGAHYPFTFGSGTKLEIK
notes: also called 11F9-F8-huFab
In the case of B2, the figures for the “% antibody positive transfected cells” value in experiment [1] and in experiment [2] were 96% and 97%, respectively. Also, the EC50 (as a rule, the concentration that produces a half-maximal response) in experiment [3] amounted to 11.6 nM. Besides, the Kd in experiment [4] is 5.2 nM. Besides, in experiment [4], the koff was found to be 0.0004 s⁻¹. In addition, in experiment [4], the association rate constant (kon) is 77000 M⁻¹ s⁻¹. The binding result in experiment [5] is “no binding (tested: <20% of binding of huCD3e + huCD3d)”. Also, the “RU of Fab binding at 100 nM” value was 10 RU in experiment [6] and 7 RU in experiment [7].

B3: 13H2-C2 Fab (Fab, V domains shown)
VH: EEELVETGGSLVQPGKSLKLTCATSGFTFSNAWMHWVRQSPDKQLEWVAQIKAKSNNYATYYAESVKGRFTISRDDSKSSVYLQMNNLKEEDTAIYYCRYVHYGLAPMDAWGQGTSVTVSS
VL: DVVMTQTPVSLSVSLGGQVSISCRSSQSLVHNNGNTYLSWYLQKAGQSPQLLIYKVSNRFSGISDRFSGSGSGTDFILKISRVEPDDLGVFYCGQGTQYPFTFGAGTKLELK
notes: also called 13H2-C3
For B3, the “% antibody positive transfected cells” value in experiment [1] was 93%. The “% antibody positive transfected cells” value in experiment [2] was found to be 93.3%. This molecule yielded an EC50 in experiment [3] of 14.3 nM. In experiment [4], the Kd stood at 29 nM, the off-rate constant (koff) came out at 0.0049 s⁻¹ and the kon turned out to be 170000 M⁻¹ s⁻¹. Further, the binding result in experiment [5] was “no binding (tested: <20% of binding of huCD3e + huCD3d)”. The “RU of Fab binding at 100 nM” value in experiment [6] amounted to 9 RU. Besides, the “RU of Fab binding at 100 nM” value in experiment [7] worked out at 6 RU.

B4: 1E6-C9 Fab (Fab, V domains shown)
VH: EVQLVETGGSLVQPGKSLKLTCATSGFTFSYAWMHWVRQSPDKQLQWVAQIKAKSNNYATYYAESVEGRFTISRDDSKSSVYLQMNSLKEEDTAIYYCRGVYYGLLGLDAWGQGTSVTVSS
VL: DVVMTQTPVSLSVRLGGQVSISCRSSQSLVHNNGNTYLSWFLQKPGQSPQLLIYKVSNRFSGISDRFSGSASGTDFTLKISRVEPDDLGVYYCGQGTHYPFTFGSGTKLEIK
notes: also called 1E6-B8; 1E6-B8/B9-C9-Fab
Consider B4, for which, in experiment [1], the “% antibody positive transfected cells” value amounted to 91.7%. For the same molecule, the “% antibody positive transfected cells” value in experiment [2] stood at 87.7%. For the same molecule, the EC50 in experiment [3] amounted to 18.7 nM. In experiment [4], the Kd was 41 nM, the off-rate (koff) came out at 0.0039 s⁻¹ and the kon was 93000 M⁻¹ s⁻¹. In addition, the binding result in experiment [5] is “no binding (tested: <20% of binding of huCD3e + huCD3d)”. For the same molecule, in experiment [6], the “RU of Fab binding at 100 nM” value is 10 RU. In experiment [7], the “RU of Fab binding at 100 nM” value worked out at 7 RU.

These data come from patent publication US20210292423A1 (published 2021).
